# In patent US10294504B2, “Mutant endoglycoceramidases with enhanced synthetic activity” (La Jolla Pharmaceutical Company, priority 2004, dated 2019):
# Experiment: Hydrolysis kinetics of wild-type Rhodococcus EGC using 2,4-dinitrophenyl lactoside as the substrate
# Format: biochemical
# Description: FIG. 18 illustrates a Michaelis-Menten curve for wild-type Rhodococcus EGC using 2,4-dinitrophenyl lactoside as the substrate.
# FIGS. 19A-19C illustrate variation of kcat, Km, and kcat/Km with increasing detergent concentration for wild-type Rhodococcus EGC.
# FIG. 20 illustrates pH rate profile for wild-type Rhodococcus EGC.
# Using 2,4-dinitrophenyl lactoside as a substrate, the Rhodococcus M-777 EGC enzyme has a Km of approximately 2 mM, and a kcat of 90 min-1 (FIG. 18). The dependence of the activity on detergent concentration was also investigated. […] The dependence of kcat/Km on detergent concentration leveled off at concentrations greater than 0.5%; increasing the detergent concentration caused a steady increase in both kcat and Km up to a concentration of 1% (FIGS. 19A-C). The pH dependence of the hydrolysis activity was also investigated. As expected, the maximal kcat/Km is observed around pH 5 (FIG. 20).
# [1] = substrate 2,4-dinitrophenyl lactoside
molecule,measurement,setting,value
"Rhodococcus M-777 EGC: wild-type endoglycoceramidase from Rhodococcus sp. M-777, GenBank AAB67050, SEQ ID NO:3 (protein, listed as Rhodococcus sp.) MRRTRLVSLIVTGSLVFGGGVAAAQSSLAASGSGSGSGTALTPSYLKDDDGRSLILRGFNTASSAKSAPDGMPQFTEADLAREYADMGTNFVRFLISWRSVEPAPGVYDQQYLDRVEDRVGWYAERGYKVMLDMHQDVYSGAITPEGNSGNGAGAIGNGAPAWATYMDGLPVEPQPRWELYYIQPGVMRAFDNFWNTTGKHPELVEHYAKAWRAVADRFADNDAVVAYDLMNEPFGGSLQGPAFEAGPLAAMYQRTTDAIRQVDQDTWVCVAPQAIGVNQGLPSGLTKIDDPRAGQQRIAYCPHLYPLPLDIGDGHEGLARTLTDVTIDAWRANTAHTARVLGDVPIILGEFGLDTTLPGARDYIERVYGTAREMGAGVSYWSSDPGPWGPYLPDGTQTLLVDTLNKPYPRAVAGTPTEWSSTSDRLQLTIEPDAAITAPTEIYLPEAGFPGDVHVEGADVVGWDRQSRLLTVRTPADSGNVTVTVTPAA",rate of hydrolysis,in the absence of detergent,very low
same,pH of maximal kcat/Km,pH dependence of the hydrolysis activity,~5 pH
same,Km,[1],~2 mM
same,kcat,[1],90 min⁻¹
